In patent US20100292083A1 (Ablynx, published 2010):
Changes are numbered by the printed parent chain. One block for each binder: values may come before it.

Target: T1, human IL6R (human, UniProt P08887 20-358, limits assumed)
T1 construct: Antigen of the Biacore experiments
T1 sequence (looked up): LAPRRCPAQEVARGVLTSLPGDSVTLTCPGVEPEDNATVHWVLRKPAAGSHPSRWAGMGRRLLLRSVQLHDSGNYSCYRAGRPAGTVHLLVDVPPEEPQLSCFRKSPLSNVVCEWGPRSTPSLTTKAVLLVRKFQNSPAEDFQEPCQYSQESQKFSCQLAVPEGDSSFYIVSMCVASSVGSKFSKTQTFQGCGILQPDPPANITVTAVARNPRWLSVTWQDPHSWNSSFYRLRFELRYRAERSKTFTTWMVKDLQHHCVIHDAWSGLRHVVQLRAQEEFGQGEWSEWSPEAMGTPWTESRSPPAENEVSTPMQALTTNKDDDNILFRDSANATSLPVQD
Experiment: SPR (Biacore), periplasmic extract
Method: The oligos were dissolved in H₂O and subsequently pooled at a final concentration of 0.4 uM for each oligo. 5 and 1 ul of this mixture was used for assembly PCR in a 50 ul reaction volume. Full-length product was purified using the Qiagen PCR purification kit. The purified PCR product was then digested with SfiI and BsteEII and ligated into the corresponding sites of expression vector pAX51. E. coli TG1 cells were transformed with 2 ul of ligation mixture and plated on LB agar+100 ug/ml ampicillin+2% glucose. Plates were incubated overnight at 37° C. Individual colonies were picked and grown overnight in 2×YT+100 ug/ml ampicillin+2% glucose. Cloned Nanobody genes were amplified directly from these cultures with M13 forward and reverse primers. PCR products were purified and subsequently sequenced. In parallel the same panel of Nanobodies was expressed at 1 ml scale for 4 hours at 37° C. Periplasmic extracts were prepared and without further purification analyzed on Biacore for their ability to bind human IL6R.

koff: 0.000803 s⁻¹
B1: 32C9PMP2_B5 (VHH, name in Kabat numbering)
VHH: EVQLVESGGGLVQAGGSLRLSCAASGFTFSDYDIGWVRQAPGKGREGVSGISSSDGNTYYADSVKGRFTISSDNAKNTVYLQMNSLRPEDTAVYYCAAEPPDSSWYLDGSPEFFKYWGQGTLVTVSS
notes: Humanized 32C9 variant

koff: 0.000584 s⁻¹
B2: 32C9PMP2_F12 (VHH, name in Kabat numbering)
VHH: B1 VHH with S30D, V79L
notes: Humanized 32C9 variant

koff: 0.00768 s⁻¹
B3: 32C9PMP2_B11 (VHH, name in Kabat numbering)
VHH: B1 VHH with S30D, G44E, G47W, V79L, L122Q
notes: Humanized 32C9 variant

koff: 0.00564 s⁻¹
B4: 32C9PMP2_B12 (VHH, name in Kabat numbering)
VHH: B1 VHH with A14P, V37F, G44E, G47W, R87K, P88A, L122Q
notes: Humanized 32C9 variant

koff: 0.00121 s⁻¹
B5: 32C9PMP2_E2 (VHH, name in Kabat numbering)
VHH: B1 VHH with A14P, V37F, G44E, R45L, V79L, R87K, P88A, L122Q
notes: Humanized 32C9 variant

koff: 0.000804 s⁻¹
B6: 32C9PMP2_F3 (VHH, name in Kabat numbering)
VHH: B1 VHH with S30D, R87K, P88A
notes: Humanized 32C9 variant

koff: 0.00426 s⁻¹
B7: 32C9PMP2_C6 (VHH, name in Kabat numbering)
VHH: B1 VHH with G47W, V79L, L122Q
notes: Humanized 32C9 variant

koff: 0.00166 s⁻¹
B8: 32C9PMP2_E1 (VHH, name in Kabat numbering)
VHH: B1 VHH with A14P, S30D, V37F, G44E, R45L, L122Q
notes: Humanized 32C9 variant

koff: 0.000162 s⁻¹
B9: Nanobody 32C9 (VHH)
VHH: B1 VHH with S30D, V37F, G44E, R87K, L122Q
notes: Tested as periplasmic extract; also called 32C9 WT; IL6R04

koff: 0.00707 s⁻¹
B10: 32C9PMP2_D10 (VHH, name in Kabat numbering)
VHH: B1 VHH with A14P, G44E, R45L
notes: Humanized 32C9 variant

koff: 0.000197 s⁻¹
B11: 32C9PMP2_G12 (VHH, name in Kabat numbering)
VHH: B1 VHH with V37F, S72R, V79L, R87K, P88A, L122Q
notes: Humanized 32C9 variant

koff: 0.000247 s⁻¹
B12: P32C9PMP2_E12 (VHH, name in Kabat numbering)
VHH: B1 VHH with S30D, V37F, S72R
notes: Humanized 32C9 variant

koff: 0.0007 s⁻¹
B13: 32C9PMP2_G4 (VHH, name in Kabat numbering)
VHH: B1 VHH with S30D, S72R, V79L, R87K, P88A, L122Q
notes: Humanized 32C9 variant

koff: 0.0138 s⁻¹
B14: 32C9PMP2_C3 (VHH, name in Kabat numbering)
VHH: B1 VHH with G44E, G47W, V79L, R87K, P88A, L122Q
notes: Humanized 32C9 variant
